Laboratory results as given in US20060259987A1 (UNIVERSITY OF UTAH RESEARCH FOUNDATION, published 2006).

Key:
factor Xa [1] = target: T1, factor Xa (human, UniProt P00742 41-179; P00742 235-488, limits assumed); assay: Kapp fXa/hep relative to plasma.at3
T1 construct: also called fXa; human factor Xa

thrombin [2] = target: T2, thrombin (human, UniProt P00734 328-622); assay: thrombin +hep: pseudo-first-order loss of chromogenic activity with heparin
Procedure: (§1) Polybrene was added with the chromogenic substrate to quench the heparin dependent reaction. The observed pseudo-first-order rate constants were calculated for each heparin (1 nM-5 nM) concentration from the slope of the log of residual proteinase activity vs. time. This was plotted against the heparin concentration to calculate the second-order rate constant for the inhibition by the heparin-ATIII complex, (Kₕₑₚ) from the equation Kobs=Kₕₑₚ[H]ₒ([AT]ₒ/[AT]ₒ+Kd)+Kuncat[AT]ₒ

factor Xa [3] = target: T1, factor Xa; assay: Kapp fXa/prog relative to plasma.at3
thrombin [4] = target: T2, thrombin; assay: Kapp IIa/hep relative to plasma.at3
factor Xa [5] = target: T1, factor Xa; assay: factor Xa +hep: pseudo-first-order loss of chromogenic activity with heparin
Procedure: as §1

thrombin [6] = target: T2, thrombin; assay: thrombin prog: pseudo-first-order loss of chromogenic activity, no heparin, 25 C
Procedure: (§2) Polybrene was added with the chromogenic substrate to quench the heparin dependent reaction. […] This was plotted against the heparin concentration to calculate the second-order rate constant for the inhibition by the heparin-ATIII complex, (Kₕₑₚ) from the equation Kobs=Kₕₑₚ[H]ₒ([AT]ₒ/[AT]ₒ+Kd)+Kuncat[AT]ₒ

thrombin [7] = target: T2, thrombin; assay: Kapp IIa/prog relative to plasma.at3
factor Xa [8] = target: T1, factor Xa; assay: factor Xa prog: pseudo-first-order loss of chromogenic activity, no heparin, 25 C
Procedure: as §2

factor Xa [9] = target: T1, factor Xa; assay: cell-based or functional assay
thrombin [10] = target: T2, thrombin; assay: cell-based or functional assay

T1 sequence (P00742 41-179 limits assumed, chain 1 of 2): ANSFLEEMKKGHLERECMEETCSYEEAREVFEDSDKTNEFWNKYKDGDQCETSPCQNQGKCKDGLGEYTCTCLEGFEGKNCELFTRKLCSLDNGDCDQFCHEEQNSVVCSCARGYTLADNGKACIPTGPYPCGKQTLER
T1 sequence (P00742 235-488 limits assumed, chain 2 of 2): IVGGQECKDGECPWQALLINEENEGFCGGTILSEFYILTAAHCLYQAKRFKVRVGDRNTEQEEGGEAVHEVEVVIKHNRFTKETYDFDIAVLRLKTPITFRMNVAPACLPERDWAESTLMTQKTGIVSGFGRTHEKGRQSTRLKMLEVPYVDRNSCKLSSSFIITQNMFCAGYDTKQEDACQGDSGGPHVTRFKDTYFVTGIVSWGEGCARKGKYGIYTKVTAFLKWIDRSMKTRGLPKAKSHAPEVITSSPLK

Row | Binder | Kapp as a percentage of the plasma ATIII value (factor Xa [1]) | kapp (apparent second-order inhibition rate constant) (thrombin [2]) | Kapp as a percentage of the plasma ATIII value (factor Xa [3]) | Kapp as a percentage of the plasma ATIII value (thrombin [4]) | kapp (apparent second-order inhibition rate constant) (factor Xa [5]) | kapp (apparent second-order inhibition rate constant) (thrombin [6]) | Kapp as a percentage of the plasma ATIII value (thrombin [7]) | kapp (apparent second-order inhibition rate constant) (factor Xa [8]) | IC50 fXa/UFH; HCA #4 (factor Xa [9]) | rsd. Xa catG; CA #14; stg1 conc 200 (factor Xa [9]) | rsd. Xa hne; CA #14; stg1 conc 200 (factor Xa [9]) | rsd. Xa no add; CA #14; stg1 conc 200 (factor Xa [9]) | IC50 IIa/UFH; HCA #4 (thrombin [10]) | rsd. IIa catG; CA #14; stg1 conc 200 (thrombin [10]) | rsd. IIa hne; CA #14; stg1 conc 200 (thrombin [10]) | rsd. IIa no add; CA #14; stg1 conc 200 (thrombin [10]) | also measured
1 | LEAI.480 (other) SPVDICTAKPRDIPMNPMCIYRSPEKKATEDEGSEQKIPEATNRRVWELSKANSRFATTFYQHLADSKNDNDNIFLSPLSISTAFAMTKLGACNDTLQQLMEVFKFDTISEKTSDQIHFFFAKLNCRLYRKANKASKLVSANRLFGDKSLTFNETYQDISELVYGAKLQPLDFKENAEQSRAAINKWVSNKTEGRITDVIPSEAINELTVLVLVNTIYFKGLWKSKFSPENTRKELFYKADGESCSASMMYQEGKFRYRRVAEGTQVLELPFKGDDITMVLILPKPEKSLAKVEKELTPEVLQEWLDELEEMMLVVHMPRFRIEDGFSLKEQLQDMGLVDLFSPEKSKLPGIVAEGRDDLYVSDAFHKAFLEVNEEGSEAAASTALEAYGRSLNPNRVTFKANRPFLVFIREVPLNTIIFMGRVANPCVK | 85% | 2.11e+06 M⁻¹ s⁻¹ | 1150% | 36% | 489000 M⁻¹ s⁻¹ | 7310 M⁻¹ s⁻¹ | 104% | 24100 M⁻¹ s⁻¹ | 40 nM | 2% | 4% | 2% | 55 nM | 1% | 3% | 7% | IC50 fXa/UFH; HCA #2 (factor Xa [9]): 65 nM; IC50 fXa/UFH; HCA #3 (factor Xa [9]): 46 nM; rsd. Xa catG; CA #12; stg1 conc 200 (factor Xa [9]): 1%; rsd. Xa catG; CA #15; stg1 conc 200 (factor Xa [9]): 0%; rsd. Xa hne; CA #12; stg1 conc 200 (factor Xa [9]): 1%; rsd. Xa hne; CA #15; stg1 conc 200 (factor Xa [9]): 1%; rsd. Xa no add; CA #12; stg1 conc 200 (factor Xa [9]): 1%; rsd. Xa no add; CA #15; stg1 conc 200 (factor Xa [9]): 1%; IC50 IIa/UFH; HCA #2 (thrombin [10]): 75 nM; IC50 IIa/UFH; HCA #3 (thrombin [10]): 43 nM; rsd. IIa catG; CA #12; stg1 conc 200 (thrombin [10]): 1%; rsd. IIa catG; CA #15; stg1 conc 200 (thrombin [10]): 1%; rsd. IIa hne; CA #12; stg1 conc 200 (thrombin [10]): 2%; rsd. IIa hne; CA #15; stg1 conc 200 (thrombin [10]): 4%; rsd. IIa no add; CA #12; stg1 conc 200 (thrombin [10]): 1%; rsd. IIa no add; CA #15; stg1 conc 200 (thrombin [10]): -1%
2 | LEAI.482 (other) SPVDICTAKPRDIPMNPMCIYRSPEKKATEDEGSEQKIPEATNRRVWELSKANSRFATTFYQHLADSKNDNDNIFLSPLSISTAFAMTKLGACNDTLQQLMEVFKFDTISEKTSDQIHFFFAKLNCRLYRKANKASKLVSANRLFGDKSLTFNETYQDISELVYGAKLQPLDFKENAEQSRAAINKWVSNKTEGRITDVIPSEAINELTVLVLVNTIYFKGLWKSKFSPENTRKELFYKADGESCSASMMYQEGKFRYRRVAEGTQVLELPFKGDDITMVLILPKPEKSLAKVEKELTPEVLQEWLDELEEMMLVVHMPRFRIEDGFSLKEQLQDMGLVDLFSPEKSKLPGIVAEGRDDLYVSDAFHKAFLEVNEEGSEAAASTALEAHGRSLNPNRVTFKANRPFLVFIREVPLNTIIFMGRVANPCVK | 145% | 5.37e+06 M⁻¹ s⁻¹ | 256% | 91% | 831000 M⁻¹ s⁻¹ | 2920 M⁻¹ s⁻¹ | 41% | 5360 M⁻¹ s⁻¹ | 22 nM | 1% | 2% | 0% | 25 nM | 1% | 4% | 1% | 
